Results: publication PMC5615210, “Design and Characterization of a Human Monoclonal Antibody that Modulates Mutant Connexin 26 Hemichannels Implicated in Deafness and Skin Disorders” (Frontiers in Molecular Neuroscience, 2017)
Ends that are not written are not given here. * marks the point of attachment. Biotin = O=C1N[C@H]2[C@H](CS[C@H]2CCCCC(=O)*)N1

What was measured:
[1] = target: T1, pepEC1.1, peptide corresponding to residues 41-56 of Cx26 (Homo sapiens); assay: ELISA; avidin-coated wells (1 ug/well), biotinylated pepEC1.1 captured (0.05 ug/well), abEC1.1 (1 mg/ml, diluted 1:100 in M-PBST) 1 h at 37 C, goat anti-human HRP conjugate, ABTS, OD at 405 nm; conditions: both partners purified
T1 construct: connexin 26 (Cx26), residues 41-56 in the EC1 domain; also called bait peptide; cognate peptide; source: synthetic peptide (Chinese Peptide Company)
T1 chain: Biotin-KEVWGDEQADFVCNTL

[2] = target: endogenous Cx26 of mouse cochlear organotypic cultures (Mus musculus C57BL6/N, UniProt Q00977); assay: immunostaining of cells or tissue; cochlear organotypic cultures of P5 mice fixed in 4% PFA, not permeabilised, abEC1.1 (2 ug/ml) overnight at 4 C, fluorescein anti-human IgG secondary antibody, confocal microscopy; control with abEC1.1 pre-incubated overnight with pepEC1.1 at 1:10 (w/w); conditions: one partner purified

binding result [1]: binds
binding result [2]: binds
B1: abEC1.1 antibody (scFv-Fc fusion protein) (scFv, V domains shown)
VH: QVQLQQSGGGVVQPGRSLRLSCAASGFTFSSYAMHWVRQAPGKGLEWVAVISHGGSNKYYADSVKGRFTISRDNSKNTLYLQMNSLRAEDTAVYYCARDFSWRGYYMDVWGKGTLVTVSS
VL: ETTLTQSPATLSLSPGERATLSCRASQSISSYLAWYQQKPGQAPRLLIYGASTRATGIPDRFSGSGSGTDFTLTISRLEPEDFAVYYCQQYGSSPRTFGGGTKVEIK
notes: scFv domain of abEC1.1 (VH and VL joined by a linker of seven amino acids); scFv-Fc format from a modified pFUSE vector (pfuse-hg1fc2); also called wild type abEC1.1; source: FreeStyle 293-F cells, transfected, purified (HiTrap Protein A HP); not shown: Fc (hinge and Fc of human IgG1), C-terminal, kept
